Test results as given in the supplement of paper PMC12042874.
± gives the uncertainty stated by the source.

Test: amyloid nucleation score (Sup35N fusion, yeast selection) (log enrichment); library NNK2; higher = more nucleation; inactive = no reads after selection
How it was run: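 Output and input plasmid inserts were sequenced by Illumina after psi-negative yeast carrying Sup35N fused to peptides of 20 random codons had been induced 24 hours with 100 μM copper sulfate and grown 7 days at 30°C on medium lacking adenine and uracil. The nucleation score is the DiMSum log enrichment of output over input reads, centred on the mode score of non-aggregating sequences. Sequences with under 100 input reads were excluded.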
In the case of NGVRYYFRVRGSMTRLNEAE, the amyloid nucleation score is reported as 0.276 ± 1. With NGWIYAYDLLLERTSQSWKI the amyloid nucleation score was -0.472 ± 0.32. With NGWKYLYIWFPAICSCFMRG the amyloid nucleation score was -0.213 ± 0.24. NHAVVCLDFNGGFPGQA showed an amyloid nucleation score of -0.481 ± 0.53. Work on NHLLMGGGHKDAVGQSVFGI yielded an amyloid nucleation score of 0.074 ± 0.74. NHSMRFVLTMPILWKNQKAG gave an amyloid nucleation score of 0.228 ± 1. For NIAVPEKAVYTYSPSETQAL, the amyloid nucleation score was -0.583 ± 0.55. With NIFMLTLGCGCQAFCSVIMT the amyloid nucleation score was 1.44 ± 0.17. For NIFRMHLGQASQVIIFLDCR, the amyloid nucleation score was 4.58 ± 0.12. NIGKMLRALFDMSNVRT gave an amyloid nucleation score of -1.17 ± 0.39. In the case of NILLIPMRGFSRFRSVMVIP, the amyloid nucleation score is reported as -0.202 ± 1.1. For NINRAQHISDVSCPDENLCI, the amyloid nucleation score was 4.07 ± 0.11. NIRFTSLFRLCYFSCDSVSN gave an amyloid nucleation score of 5.301 ± 0.035. Substance NKRLLLMFNRWDCVVSWDKC has an amyloid nucleation score of -1.31 ± 0.78. In the case of NKRMRVRVEGRLINV, the amyloid nucleation score is reported as 0.089 ± 0.42. With NKRPSRTNLWIKALVRP the amyloid nucleation score was “inactive”. With NKTPYIDFVLTR the amyloid nucleation score was 0.236 ± 1.1. Work on NKVEALLWTKTTLQCSLRSV yielded an amyloid nucleation score of 4.82 ± 0.059. For NKVVAFNGLV, the amyloid nucleation score was “inactive”. NKVVGNTNTFLEND showed an amyloid nucleation score of 3.91 ± 0.094. In the case of NKWSPEGNSACRDSVCTHIY, the amyloid nucleation score is reported as -0.807 ± 0.76. Work on NLAFSSSIRPLITLEGELLP yielded an amyloid nucleation score of -0.176 ± 1.1. Substance NLDCLYTLAS has an amyloid nucleation score of 0.339 ± 0.8. In the case of NLDEQGFAVSWETVLLWSEE, the amyloid nucleation score is reported as -0.005 ± 0.5. NLDGIVRMTN showed an amyloid nucleation score of -0.543 ± 0.56. Work on NLFLLYEAW yielded an amyloid nucleation score of -0.155 ± 0.2. Substance NLFYLARSMLINLQMYKTER has an amyloid nucleation score of 4.46 ± 0.08. NLGCWLVGWLNCGFRWDDDR gave an amyloid nucleation score of 5.639 ± 0.038. For NLGHTCVCFKRIRSYFFSYR, the amyloid nucleation score was -0.94 ± 0.49. NLGTWD gave an amyloid nucleation score of -0.156 ± 0.28. For NLGYYTG, the amyloid nucleation score was -0.868 ± 1.1. NLHLGMEFTCELRCYWIRLP showed an amyloid nucleation score of 0.279 ± 0.5. Substance NLIKNSAMLSSTRPIYHHSI has an amyloid nucleation score of -1.27 ± 0.3. Work on NLILWKTYCAAFCVGFINCT yielded an amyloid nucleation score of 5.36 ± 0.069. NLLLVFSILNSGRMTLNDNK gave an amyloid nucleation score of 5.48 ± 0.094. Work on NLLWLFDV yielded an amyloid nucleation score of 0.19 ± 1.1. Work on NLLWYKLNLNTYVACAIKWW yielded an amyloid nucleation score of 0.198 ± 0.38. In the case of NLNFKDGPGDLTCMRDRAFS, the amyloid nucleation score is reported as -0.508 ± 0.63. NLRLDIAFSPWPRSGYNSGS showed an amyloid nucleation score of 0.292 ± 0.64. NLTMYILRNYTCIMYYIKVC gave an amyloid nucleation score of -0.208 ± 1. Substance NLTVCMLDSPGYQKDCGMRL has an amyloid nucleation score of 1.54 ± 0.27. NLVFSTRIHKFFLNRGEG showed an amyloid nucleation score of 5.15 ± 0.058. For NLYMFIRRAPDIIFCAHVYQ, the amyloid nucleation score was 4.35 ± 0.051. NMGLFGGILVFVMWLIMCSL showed an amyloid nucleation score of 2.31 ± 0.15. NMIYYMFEYAWPCIVER gave an amyloid nucleation score of 7.37 ± 0.08. NMLKGMCWVTLCIWMYMRLC showed an amyloid nucleation score of 4.09 ± 0.057. In the case of NMMCISSHGSTTSGFLRSSL, the amyloid nucleation score is reported as 3.52 ± 0.062. With NMNGF the amyloid nucleation score was -0.532 ± 1. NMRTNLWNIIAFLSSRSIAQ showed an amyloid nucleation score of 0.857 ± 0.35. NMSCKFSNPWNWFD gave an amyloid nucleation score of -0.11 ± 0.39. NMWTFRSIMIPALFYEIFIA gave an amyloid nucleation score of -1.75 ± 0.54. Substance NNDDQSFCAWVFNDVQ has an amyloid nucleation score of 0.056 ± 0.6. NNDYFTEGAGKGVTLIGALG gave an amyloid nucleation score of 4.443 ± 0.041. With NNGMFGNFSKSDYFDKWRYM the amyloid nucleation score was “inactive”. NNKLSRV showed an amyloid nucleation score of -0.661 ± 1.1. NNLKLCNRTMCLVYEVCVTD showed an amyloid nucleation score of -1.23 ± 0.62. With NNRYELCSSQH the amyloid nucleation score was “inactive”. For NNSGSNKSD, the amyloid nucleation score was -0.509 ± 0.78. For NNVSLPYMSSIVIIGLIRR, the amyloid nucleation score was 7.193 ± 0.057. Work on NPSFNESFLSGSQKVQILMG yielded an amyloid nucleation score of -0.509 ± 1.1. For NPSLELYKYISAIDMGINPP, the amyloid nucleation score was “inactive”. With NPTLGHKNVFVRYSF the amyloid nucleation score was 2.9 ± 0.14. Substance NPYINLLRFIDSDSSALV has an amyloid nucleation score of -1.35 ± 1.1. Work on NQAYR yielded an amyloid nucleation score of 0.12 ± 0.43. In the case of NQCAVQGLYRRRMVHDRQED, the amyloid nucleation score is reported as -0.52 ± 0.78. For NQVFSIALAQNRSRHFFLGG, the amyloid nucleation score was “inactive”. Substance NRADGDKFSSSPSPTWKYME has an amyloid nucleation score of -0.081 ± 1.1. For NRCLGIT, the amyloid nucleation score was 0.231 ± 0.48. NRECCTSDLRIMNVLRPL showed an amyloid nucleation score of -0.028 ± 0.18. With NREIGISWEGWMMLKILQYK the amyloid nucleation score was “inactive”. In the case of NRFDDVSDDVKTCC, the amyloid nucleation score is reported as 5.82 ± 0.059. In the case of NRGFFGSYGVPELQNMDQFE, the amyloid nucleation score is reported as 0.153 ± 0.79. Substance NRIGLCRGLNQFFLPGMWSR has an amyloid nucleation score of 0.283 ± 0.26. Work on NRISGLGMSSKGKRGKVMLK yielded an amyloid nucleation score of 0.493 ± 0.46. NRKFARWLLLT gave an amyloid nucleation score of -0.492 ± 0.61. For NRLSELGPCFHLFTSV, the amyloid nucleation score was 0.089 ± 1.1. NRMRVMAWCAILNKELSGGK showed an amyloid nucleation score of 0.93 ± 0.51. NRPLCSFDTEFDLYEQIHLR showed an amyloid nucleation score of 4.38 ± 0.086. In the case of NRSTRGWGVVSTLCYRLSSF, the amyloid nucleation score is reported as “inactive”. Substance NRWLYFHS has an amyloid nucleation score of -0.678 ± 0.76. Substance NRWYKLRLYICYDLRIAVFN has an amyloid nucleation score of -1.58 ± 1.1. With NSDRL the amyloid nucleation score was -0.794 ± 0.45. In the case of NSFVCMLPGVFVKCRCSNAD, the amyloid nucleation score is reported as 4.832 ± 0.044. NSGYIGLGLSF gave an amyloid nucleation score of -0.224 ± 0.65. NSLANDTQIRKNCLSIV showed an amyloid nucleation score of -0.474 ± 1.1.
